Common to all, as to assay: GST pull-down from GDP+AlF4- treated human platelet lysate, western blot
(In general: A western blot detects proteins with antibodies after separation by electrophoresis.)

Experiment [1] addresses T1, Gα12 (endogenous, human platelet lysate) (human, UniProt Q03113 1-381).
T1 construct: mature
T1 sequence (looked up): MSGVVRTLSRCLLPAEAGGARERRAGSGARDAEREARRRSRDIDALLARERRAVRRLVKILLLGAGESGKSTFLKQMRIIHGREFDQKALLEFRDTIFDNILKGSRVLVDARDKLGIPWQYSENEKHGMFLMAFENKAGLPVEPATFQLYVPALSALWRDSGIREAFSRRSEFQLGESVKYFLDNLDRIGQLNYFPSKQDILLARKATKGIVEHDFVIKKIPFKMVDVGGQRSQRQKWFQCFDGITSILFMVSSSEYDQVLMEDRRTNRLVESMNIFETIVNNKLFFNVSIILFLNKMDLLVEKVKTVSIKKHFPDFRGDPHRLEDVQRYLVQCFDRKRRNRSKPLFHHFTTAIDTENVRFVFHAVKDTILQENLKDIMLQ
As for the experimental part: (§1) Bound antibody was detected using goat […] (BioRad, Hercules, Calif.) and Supersignal West Pico ECL reagent (Pierce, Rockford, Ill.).
(§2) In order to determine the target alpha subunits of RGS18, binding experiments were performed using GST-RGS18 as prepared in Example 4 and lysates of human platelets. A similar method has been used to determine the binding specificity of hRGS16 using lysates from Jurkat cells (164). […] For these experiments, platelets were lysed in a Triton X-100 containing buffer and resuspended to 1 mg/ml. The lysate was then treated with GDP, which holds the alpha subunit in the GDP-bound “in-activated” state, or GDP+AlF₄⁻ that mimics the transition state of the Gα subunit. Recombinant GST-RGS18 bound to Sepharose-4 beads was added to the treated lysates, incubated and washed several times. Bound protein was eluted in Laemmli buffer and subjected to SDS-PAGE followed by western blot analysis. A panel of G protein alpha subunit specific antibodies was used to determine which alpha subunits bind to RGS18. […] In contrast, in lysates that have been treated with GDP+AlF₄⁻, RGS18 binds a significant amount of alpha subunit detected by antibodies directed against G_{αi1/2}, G_{α0/i3} and G_{αq/11}. […] Neither GST nor Sepharose 4B alone binds to any of these alpha subunits in either GDP or GDP+AlF₄⁻ treated platelet lysates (data not shown). The binding selectivity of RGS18 is consistent with that found for other RGS proteins which selectively bind to members of the Gαi family and/or Gαq family (14).

Experiment [2] has as its target T2, Gαs (endogenous, human platelet lysate) (human, UniProt P63092 2-394).
T2 construct: mature
As for the experimental part:
as §1, §2

Experiment [3] concerns the target T3, Gαq (endogenous, human platelet lysate) (human, UniProt P50148 1-359).
T3 construct: mature; also called Gαq/11; alpha subunit detected by antibodies directed against Gαq/11
T3 sequence (looked up): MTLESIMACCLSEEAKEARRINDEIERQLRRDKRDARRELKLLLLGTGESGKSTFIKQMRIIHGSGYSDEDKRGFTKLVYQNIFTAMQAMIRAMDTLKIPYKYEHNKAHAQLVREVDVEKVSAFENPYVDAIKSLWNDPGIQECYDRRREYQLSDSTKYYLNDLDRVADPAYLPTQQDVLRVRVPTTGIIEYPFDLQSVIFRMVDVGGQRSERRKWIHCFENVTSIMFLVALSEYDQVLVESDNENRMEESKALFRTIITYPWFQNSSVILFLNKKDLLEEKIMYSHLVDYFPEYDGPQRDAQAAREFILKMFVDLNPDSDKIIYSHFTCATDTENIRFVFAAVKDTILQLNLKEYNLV
On the procedure:
as §1, §2

The target in experiment [4] is T4, Gαz (endogenous, human platelet lysate) (human, UniProt P19086 2-355).
T4 construct: mature; also called printed once as Gα2
T4 sequence (P19086 2-355): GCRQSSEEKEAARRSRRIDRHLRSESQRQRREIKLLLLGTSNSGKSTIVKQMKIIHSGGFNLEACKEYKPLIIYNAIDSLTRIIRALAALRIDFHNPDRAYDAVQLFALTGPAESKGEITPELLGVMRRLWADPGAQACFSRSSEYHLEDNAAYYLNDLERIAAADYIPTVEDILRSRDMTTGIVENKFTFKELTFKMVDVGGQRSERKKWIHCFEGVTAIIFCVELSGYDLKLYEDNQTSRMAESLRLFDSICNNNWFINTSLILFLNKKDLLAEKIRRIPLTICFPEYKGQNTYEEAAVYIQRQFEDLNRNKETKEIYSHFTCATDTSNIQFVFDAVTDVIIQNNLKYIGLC
On the procedure:
as §1, §2

T2 sequence (P63092 2-394): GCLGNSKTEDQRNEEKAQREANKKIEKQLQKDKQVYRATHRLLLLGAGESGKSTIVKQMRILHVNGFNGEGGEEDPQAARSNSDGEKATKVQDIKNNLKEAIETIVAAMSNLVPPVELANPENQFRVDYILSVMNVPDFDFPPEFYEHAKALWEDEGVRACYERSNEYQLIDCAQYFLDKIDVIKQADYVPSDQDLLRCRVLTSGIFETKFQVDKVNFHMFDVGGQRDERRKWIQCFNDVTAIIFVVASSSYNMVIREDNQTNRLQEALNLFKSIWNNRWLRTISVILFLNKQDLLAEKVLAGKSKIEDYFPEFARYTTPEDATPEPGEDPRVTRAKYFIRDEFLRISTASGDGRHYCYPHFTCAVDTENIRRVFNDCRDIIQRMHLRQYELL

B1: GST-RGS18 fusion protein coupled to glutathione-Sepharose 4B (other)
chain: METTLLFFSQINMCESKEKTFFKLIHGSGKEETSKEAKIRAKEKRNRLSLLVQKPEFHEDTRSSRSGHLAKETRVSPEEAVKWGESFDKLLSHRDGLEAFTRFLKTEFSEENIEFWIACEDFKKSKGPQQIHLKAKAIYEKFIQTDAPKEVNLDFHTKEVITNSITQPTLHSFDAAQSRVYQLMEQDSYTRFLKSDIYLDLMEGRPQRPTNLRRRSRSFTCNEFQDVQSDVAIWL
notes: The sense primer carries a few nucleotides upstream of the ATG, so a short extra linker between GST and Met1 is likely; also called recombinant GST-RGS18; GST-tagged fusion protein of RGS18; not shown: glutathione S-transferase (GST) tag encoded by plasmid pGEX-5X-1, N-terminal to RGS18 (in-frame Bam HI fusion); the fili
For the molecule B1, the binding result in experiment [1] was “no binding”; in experiment [2], “no binding”; in experiment [3], “binds”; in experiment [4] it was “no binding”.
